Test results published in FireProtDB (doi:10.1002/prot.20496).
Several values for one entry are separate records, joined by “and”; a condition that tells them apart may be missing. Equal values may be shown once.

B1: Alpha-lactalbumin, P00712 (parent)
chain: MMSFVSLLLVGILFHATQAEQLTKCEVFQKLKDLKDYGGVSLPEWVCTAFHTSGYDTQAIVQNNDSTEYGLFQINNKIWCKDDQNPHSRNICNISCDKFLDDDLTDDIVCAKKILDKVGINYWLAHKALCSEKLDQWLCEKL

Variants of: B1
Conditions: Capra hircus, pH 7.5, Thermal, Tris-HCl 10 mM, CaCl2 2 mM, structure 1HFY, whole UniProt chain shown

Variant | Tm (DSC) | change of melting temperature, mutant - wild type (higher = more stable) (DSC) | Tm (Fluorescence) | change of melting temperature, mutant - wild type (higher = more stable) (Fluorescence)
MMSFVSLLLVGILFHATQAEQLTKCEVFQKLKDLKDYGGVSLPEWVCTAFHTSGYDTQAIVQNNDSTEYGLFQINNKIFCKDDQNPHSRNICNISCDKFLDDDLTDDIVCAKKILDKVGINYWLAHKALCSEKLDQWLCEKL [W79F] | 67.9 °C | -3.2 °C | 69.2 °C | -2 °C
MMSFVSLLLVGILFHATQAEQLTKCEVFQKLKDLKDYGGVSLPEWVCTAFHTSGYDTQAIVQNNDSTEYGLFQINNKIFCKDDQNPHSRNICNISCDKFLDDDLTDDIVCAKKILDKVGINYWLAHKALCSEKLDQFLCEKL [W79F W137F] | 68.1 °C | -3 °C | 71 °C and 68 °C | -0.2 °C and -1.9 °C
MMSFVSLLLVGILFHATQAEQLTKCEVFQKLKDLKDYGGVSLPEWVCTAFHTSGYDTQAIVQNNDSTEYGLFQINNKIWCKDDQNPHSRNICNISCDKFLDDDLTDDIVCAKKILDKVGINYWLAHKALCSEKLDQFLCEKL [W137F] | 71.5 °C | 0.4 °C | – | –
